# According to paper PMC4167904:
# T1: p52 (NF-kB2) (human, UniProt Q00653 1-408)
# T1 sequence: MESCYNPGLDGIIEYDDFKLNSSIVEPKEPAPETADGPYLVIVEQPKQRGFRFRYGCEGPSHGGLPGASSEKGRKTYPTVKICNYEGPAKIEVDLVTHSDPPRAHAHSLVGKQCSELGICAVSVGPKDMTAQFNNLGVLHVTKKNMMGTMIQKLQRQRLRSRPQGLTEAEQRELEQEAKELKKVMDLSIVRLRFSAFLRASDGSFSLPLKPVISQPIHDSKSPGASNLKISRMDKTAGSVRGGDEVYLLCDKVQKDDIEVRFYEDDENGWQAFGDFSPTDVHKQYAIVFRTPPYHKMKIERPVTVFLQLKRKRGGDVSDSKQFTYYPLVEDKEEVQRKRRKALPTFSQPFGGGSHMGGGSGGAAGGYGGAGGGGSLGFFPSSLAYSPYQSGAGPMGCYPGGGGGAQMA
# B1: P-selectin kB (A/T) (dsDNA)
# DNA 1: TCGACGGAAGGGGGTAACCCCTTGGG
# DNA 2: GATCCCCAAGGGGTTACCCCCTTCCG
# Target: T1, p52 (NF-kB2)
# Assay: EMSA
binder,measurement,value
B1,binding result,binds
